Experimental data published in patent US20050154189A1.

Target: Soluble CD28-Ig (human), P10747
Test: two-colour FACS profile on transfected cells; score of preference for CD28-Ig over CTLA-4-Ig vs WT hB7-1

B1: Round 2 CD28A12-5 (ligand)
chain: ITPKSVTKRVKETVMLSCDYNTSTEELTSLRIYWRKDSKMXLAILPGKVQVWPEYKNRTITDMNDNLRIVILALRLSDSGTYTCVIQKPDLKGAYKLEHLTSVRLMIRADFPVPTINDLGNPSPNIRRLICSTSGGFPRPHLYWLENGEELNATNTTVSQDPGTELYMISSELDFNVTNNHSIVCLIKYGELLVSQIFPWSKPKQEPPIDQLPFWVIIPVSGALVLTAVVLYCLACRHVARWKRTRRNEETVGTERLSPIYLGSAQSSG
modifications: not fully specified; X: residue not identified in the source; ends and bridges not checked; also: glycosylated, sites not given here
Binding Score: 1

B2: Round 2 CD28A4-9 (ligand)
chain: ITPKSVTKRVKETVMLSCDYNTSTEKLTSLRIYWQKDSKMVLAILPGKVQVWPEYKNRTITDMNDNPRIVILALRLSDSGTYTCVIQKPVLKGAYKLEHLTSVRLMIRADFPVPTINDLGNPSPNIRRLICSTSGGFPRPHLYWLENGEELNATNTTVSQDPETKLYMISSELDFNVTNNHSIVCLIKYGELSVSQIFPWSKPKQEPPIDQLPFWVIIPVSGALVLTAVVLYCPACRHVARWKRTRRNEETVGTERLSPIYLGSAQSRAEVPSLSX
modifications: not fully specified; X: residue not identified in the source; ends and bridges not checked
Binding Score: 1
